Biological target: CLDN18.2
Test: FACS binding, KATO III cells

B1: IMAB362 (antibody, V domains shown)
VH: QVQLQQPGAELVRPGASVKLSCKASGYTFTSYWINWVKQRPGQGLEWIGNIYPSDSYTNYNQKFKDKATLTVDKSSSTAYMQLSSPTSEDSAVYYCTRSWRGNSFDYWGQGTTLTVSS
VL: DIVMTQSPSSLTVTAGEKVTMSCKSSQSLLNSGNQKNYLTWYQQKPGQPPKLLIYWASTRESGVPDRFTGSGSGTDFTLTISSVQAEDLAVYYCQNDYSYPFTFGSGTKLEIKR
  EC50: 0.67 µg/mL
